Patent US20080220446A1, “Method for Detecting and/or Removing Protein and/or Peptide Comprising a Cross-Beta Structure From an Aqueous Solution Comprising a Protein” (priority 2005, published 2008)

Biological target: tPA (Homo sapiens, UniProt P00750)
Assay: Biacore surface plasmon resonance, binding to immobilized tPA
Details: Hb-AGE 32, albumin-AGE 3.9, amyloid γ-globulins 62.5 μg ml^−1
Protocol: Binding of cross-β structure containing peptides/proteins was studied using surface plasmon resonance technology with a Biacore 2000 apparatus (Biacore AB, Uppsala, Sweden). A standardized amine coupling procedure was used to couple proteins with F domains to a CM5 chip (Biacore AB, Uppsala, Sweden). First, the dextran surface of the chips was activated by a 35 μl injection with a 1:1 mixture of 0.1 M N-hydroxysuccinimide (NHS) and 0.4 M N-ethyl-N′-(dimethylaminopropyl)carbodiimide (EDC) at a flow rate of 5 μl min.^−1. Then, the proteins were covalently coupled to the activated dextran surface. Remaining activated groups in each of the four flow channels were blocked by injection of 35 μl of 1 M ethanolamine hydrochloride pH 8.5. EDC, NHS and ethanolamine hydrochloride were obtained from Biacore. On one chip, on channels 1 to 4, buffer (reference channel), the soluble extracellular part of receptor for advanced glycation endproducts (sRAGE), tPA and K2P-tPA were immobilized. […] Binding of albumin-AGE was determined with a solution of 3.9 μg ml^−1 albumin-AGE in running buffer. albumin-AGE was filtered on a Millex-GV 0.22 μm filter unit (Millipore). […] Binding of Hb-AGE was also tested after centrifugation for 10 min. at 16,000*g alternative to filtration. tPA activation before and after filtration was assessed with a Plg-activation assay. […]

Sequence of tPA (P00750 36-562): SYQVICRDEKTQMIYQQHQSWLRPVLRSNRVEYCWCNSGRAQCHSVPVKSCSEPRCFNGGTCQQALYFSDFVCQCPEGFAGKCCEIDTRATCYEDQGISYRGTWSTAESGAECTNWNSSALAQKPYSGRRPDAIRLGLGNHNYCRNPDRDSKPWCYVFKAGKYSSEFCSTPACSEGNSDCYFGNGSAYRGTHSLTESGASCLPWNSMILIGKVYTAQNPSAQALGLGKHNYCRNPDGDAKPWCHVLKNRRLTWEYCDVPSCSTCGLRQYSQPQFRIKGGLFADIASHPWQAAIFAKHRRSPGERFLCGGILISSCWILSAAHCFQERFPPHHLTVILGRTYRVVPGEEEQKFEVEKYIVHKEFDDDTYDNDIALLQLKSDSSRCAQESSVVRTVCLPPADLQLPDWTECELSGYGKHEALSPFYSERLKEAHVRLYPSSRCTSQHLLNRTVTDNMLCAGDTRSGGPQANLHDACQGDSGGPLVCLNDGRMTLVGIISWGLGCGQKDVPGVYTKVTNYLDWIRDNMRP

- binding to immobilized tPA: bind
Substance: albumin-AGE: advanced glycation end-product modified bovine serum albumin
